Laboratory results: paper PMC6825169, “Extracellular vesicle integrins act as a nexus for platelet adhesion in cerebral microvessels” (Scientific Reports, 2019)
Bridges are numbered along the chain shown (N, C = ends).

Biological target: integrin αvβ3 (mouse (endogenous in mouse middle …, UniProt P43406 31-1044; O54890 26-787)
Experiment: cell-based or functional assay

Sequence of integrin αvβ3 (mouse (P43406 31-1044, chain 1 of 2): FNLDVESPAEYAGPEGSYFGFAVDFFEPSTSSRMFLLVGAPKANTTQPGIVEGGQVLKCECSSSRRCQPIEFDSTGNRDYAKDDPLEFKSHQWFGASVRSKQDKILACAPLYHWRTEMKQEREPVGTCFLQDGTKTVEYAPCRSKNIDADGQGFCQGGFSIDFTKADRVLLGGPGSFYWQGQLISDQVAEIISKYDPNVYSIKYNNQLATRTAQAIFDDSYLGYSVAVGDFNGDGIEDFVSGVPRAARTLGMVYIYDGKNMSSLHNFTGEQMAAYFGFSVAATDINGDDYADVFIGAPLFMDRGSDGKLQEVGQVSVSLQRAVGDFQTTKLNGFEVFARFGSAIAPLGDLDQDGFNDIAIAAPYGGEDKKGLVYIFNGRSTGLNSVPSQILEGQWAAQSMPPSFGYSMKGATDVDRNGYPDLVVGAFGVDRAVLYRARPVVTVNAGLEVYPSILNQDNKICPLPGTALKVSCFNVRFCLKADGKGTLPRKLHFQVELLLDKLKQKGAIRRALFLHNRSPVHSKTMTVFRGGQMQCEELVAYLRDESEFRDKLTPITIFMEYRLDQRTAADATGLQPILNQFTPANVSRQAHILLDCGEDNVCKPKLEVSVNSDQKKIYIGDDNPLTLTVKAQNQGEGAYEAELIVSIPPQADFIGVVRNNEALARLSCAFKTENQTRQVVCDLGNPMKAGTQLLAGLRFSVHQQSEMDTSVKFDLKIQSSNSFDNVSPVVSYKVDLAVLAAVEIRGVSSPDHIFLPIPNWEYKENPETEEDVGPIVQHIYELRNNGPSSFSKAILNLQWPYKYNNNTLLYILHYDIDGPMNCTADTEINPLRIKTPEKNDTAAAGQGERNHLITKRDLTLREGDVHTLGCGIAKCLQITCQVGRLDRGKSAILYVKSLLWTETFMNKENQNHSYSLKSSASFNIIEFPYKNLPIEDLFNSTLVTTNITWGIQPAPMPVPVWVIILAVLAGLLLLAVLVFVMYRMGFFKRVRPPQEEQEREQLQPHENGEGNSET
Sequence of integrin αvβ3 (mouse (O54890 26-787, chain 2 of 2): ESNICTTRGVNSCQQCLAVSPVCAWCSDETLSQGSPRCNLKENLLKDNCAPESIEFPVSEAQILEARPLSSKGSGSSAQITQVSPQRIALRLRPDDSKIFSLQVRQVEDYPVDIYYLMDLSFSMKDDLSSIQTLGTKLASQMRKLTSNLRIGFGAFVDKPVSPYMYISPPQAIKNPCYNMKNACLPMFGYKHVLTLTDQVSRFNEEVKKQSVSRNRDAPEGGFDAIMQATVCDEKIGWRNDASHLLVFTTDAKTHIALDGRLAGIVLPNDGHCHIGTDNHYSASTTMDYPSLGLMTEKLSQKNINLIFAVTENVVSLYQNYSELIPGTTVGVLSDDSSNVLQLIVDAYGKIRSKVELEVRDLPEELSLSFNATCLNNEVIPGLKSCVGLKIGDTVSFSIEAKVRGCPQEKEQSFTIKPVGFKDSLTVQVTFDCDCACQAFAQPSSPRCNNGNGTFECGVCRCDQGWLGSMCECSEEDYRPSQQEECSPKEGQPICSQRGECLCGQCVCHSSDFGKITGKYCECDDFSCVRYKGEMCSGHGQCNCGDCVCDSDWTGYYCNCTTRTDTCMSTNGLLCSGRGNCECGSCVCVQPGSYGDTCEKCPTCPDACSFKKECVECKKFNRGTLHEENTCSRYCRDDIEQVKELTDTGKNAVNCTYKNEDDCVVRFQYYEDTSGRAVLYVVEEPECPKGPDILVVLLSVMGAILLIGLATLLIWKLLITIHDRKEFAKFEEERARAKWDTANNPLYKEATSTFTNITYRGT

H-GCRGDC-NH2 (disulfide 2-6 (inferred)) [H-GCRGDC-NH2 (cRGD)]
adherence of CFSE-labelled washed platelets to the luminal surface of the MCA under flow after cRGD-MPs, compared to cRGD peptide alone: 3 fold
